# Data from patent US20150118212A1.
# Substitutions are numbered along the chain they refer to. Numbers in names are those of the source.
# B1: SAK 1CCT (protein)
# chain: SSSFDKGKYKKGDDASYFEPTGPYLMVNVTGVDGKGNELLSPHYVEFPIKPGTTLTKEKIEYYVEWALDATAYKEFRVVELDPSAKIEVTYYDKNKKKEETKSFPITEKGFVVPDLSEHIKNPGFNLITKVVIEKKAC
# B2: SAK 2CCT (protein)
# chain: B1 chain with A137C
# B3: SAK (Recombinant) (protein)
# chain: SSSFDKGKYKKGDDASYFEPTGPYLMVNVTGVDGKGNELLSPHYVEFPIKPGTTLTKEKIEYYVEWALDATAYKEFRVVELDPSAKIEVTYYDKNKKKEETKSFPITEKGFVVPDLSEHIKNPGFNLITKVVIEKK
# B4: SAK S3C (protein)
# chain: B3 chain with S3C
# B5: SAK 2CNT (protein)
# chain: MCCSSSFDKGKYKKGDDASYFEPTGPYLMVNVTGVDGKGNELLSPHYVEFPIKPGTTLTKEKIEYYVEWALDATAYKEFRVVELDPSAKIEVTYYDKNKKKEETKSFPITEKGFVVPDLSEHIKNPGFNLITKVVIEKK
# B6: SAK 1CNT (protein)
# chain: MCSSSFDKGKYKKGDDASYFEPTGPYLMVNVTGVDGKGNELLSPHYVEFPIKPGTTLTKEKIEYYVEWALDATAYKEFRVVELDPSAKIEVTYYDKNKKKEETKSFPITEKGFVVPDLSEHIKNPGFNLITKVVIEKK
# Molecular target: T1, human plasminogen, P00747
# T1 chain: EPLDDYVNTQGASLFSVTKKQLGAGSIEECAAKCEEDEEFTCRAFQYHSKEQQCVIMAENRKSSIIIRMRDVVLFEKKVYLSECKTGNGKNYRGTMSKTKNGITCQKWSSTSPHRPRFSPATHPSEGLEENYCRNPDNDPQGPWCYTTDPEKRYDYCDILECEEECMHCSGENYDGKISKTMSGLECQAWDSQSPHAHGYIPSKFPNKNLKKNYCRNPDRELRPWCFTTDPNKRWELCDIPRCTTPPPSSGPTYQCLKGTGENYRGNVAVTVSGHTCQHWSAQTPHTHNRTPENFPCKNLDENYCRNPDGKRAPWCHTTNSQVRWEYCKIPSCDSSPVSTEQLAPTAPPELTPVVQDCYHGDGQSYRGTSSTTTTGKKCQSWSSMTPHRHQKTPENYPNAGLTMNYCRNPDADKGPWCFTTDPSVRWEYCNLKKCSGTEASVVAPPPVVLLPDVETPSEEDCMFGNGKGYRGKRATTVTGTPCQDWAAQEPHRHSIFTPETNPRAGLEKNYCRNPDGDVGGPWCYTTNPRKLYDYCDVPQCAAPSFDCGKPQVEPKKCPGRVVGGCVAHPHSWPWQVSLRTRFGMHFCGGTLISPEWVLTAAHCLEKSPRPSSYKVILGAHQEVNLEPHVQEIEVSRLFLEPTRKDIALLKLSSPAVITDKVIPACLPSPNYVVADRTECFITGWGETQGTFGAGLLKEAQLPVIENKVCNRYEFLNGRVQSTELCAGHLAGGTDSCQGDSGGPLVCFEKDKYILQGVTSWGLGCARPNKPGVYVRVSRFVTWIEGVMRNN
row,Protein,Specific Activity (U/mg)
1,B1,64 ± 4.5 U/mg
2,B2,65 ± 3.8 U/mg
3,B3,66 ± 3.5 U/mg
4,B4,60 ± 4.1 U/mg
5,B5,57 ± 3 8 U/mg
6,B6,40 ± 4.3 U/mg
